B1: ZNF263 (parent)
chain: VPGTQVGQGGKLWDPSVQSCKEGL

Variants of: B1
Experiment: protein stability index of a GFP-peptide fusion (GPS, HEK-293T) (PSI 1-6); higher = more stable
Settings: c terminus: a fixed tail appended
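Note: lentivirally expressed fusions sorted by FACS into six bins by GFP to DsRed ratio, PSI derived from sequencing read proportions per bin multiplied by bin number.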

Variant	protein stability index
VDGTQVGQGGKLWDPSVQSCKEGL [P2D]	4.12
VFGTQVGQGGKLWDPSVQSCKEGL [P2F]	3.99
VCGTQVGQGGKLWDPSVQSCKEGL [P2C]	3.61
VLGTQVGQGGKLWDPSVQSCKEGL [P2L]	3.89
VNGTQVGQGGKLWDPSVQSCKEGL [P2N]	4.18
VWGTQVGQGGKLWDPSVQSCKEGL [P2W]	3.12
VTGTQVGQGGKLWDPSVQSCKEGL [P2T]	3.86
VSGTQVGQGGKLWDPSVQSCKEGL [P2S]	3.55
VIGTQVGQGGKLWDPSVQSCKEGL [P2I]	3.19
VGGTQVGQGGKLWDPSVQSCKEGL [P2G]	4.28
VPGTEVGQGGKLWDPSVQSCKEGL [Q5E]	3.94
VPGTHVGQGGKLWDPSVQSCKEGL [Q5H]	4.63
VPGTCVGQGGKLWDPSVQSCKEGL [Q5C]	4.04
VPGTWVGQGGKLWDPSVQSCKEGL [Q5W]	4.15
VPGTGVGQGGKLWDPSVQSCKEGL [Q5G]	4.27
VPGTRVGQGGKLWDPSVQSCKEGL [Q5R]	4.2
VPGTKVGQGGKLWDPSVQSCKEGL [Q5K]	4.21
VPGTNVGQGGKLWDPSVQSCKEGL [Q5N]	4.23
VPGTIVGQGGKLWDPSVQSCKEGL [Q5I]	4.16
VPGTLVGQGGKLWDPSVQSCKEGL [Q5L]	4.17
VPGTSVGQGGKLWDPSVQSCKEGL [Q5S]	4.13
VPGTDVGQGGKLWDPSVQSCKEGL [Q5D]	4.16
VPGTMVGQGGKLWDPSVQSCKEGL [Q5M]	3.79
VPGTPVGQGGKLWDPSVQSCKEGL [Q5P]	4.33

Variant	protein stability index
VPGTFVGQGGKLWDPSVQSCKEGL [Q5F]	3.3
VPGTVVGQGGKLWDPSVQSCKEGL [Q5V]	4.24
VPGTTVGQGGKLWDPSVQSCKEGL [Q5T]	4.2
VPGTAVGQGGKLWDPSVQSCKEGL [Q5A]	4
VPGTYVGQGGKLWDPSVQSCKEGL [Q5Y]	3.25
VPGTQVGAGGKLWDPSVQSCKEGL [Q8A]	4.41
VPGTQVGEGGKLWDPSVQSCKEGL [Q8E]	3.48
VPGTQVGDGGKLWDPSVQSCKEGL [Q8D]	4.71
VPGTQVGHGGKLWDPSVQSCKEGL [Q8H]	4.12
VPGTQVGCGGKLWDPSVQSCKEGL [Q8C]	3.07
VPGTQVGIGGKLWDPSVQSCKEGL [Q8I]	4.15
VPGTQVGFGGKLWDPSVQSCKEGL [Q8F]	4.17
VPGTQVGGGGKLWDPSVQSCKEGL [Q8G]	4.28
EPGTQVGQGGKLWDPSVQSCKEGL [V1E]	5.15
YPGTQVGQGGKLWDPSVQSCKEGL [V1Y]	1.85
TPGTQVGQGGKLWDPSVQSCKEGL [V1T]	4.63
QPGTQVGQGGKLWDPSVQSCKEGL [V1Q]	4.51
CPGTQVGQGGKLWDPSVQSCKEGL [V1C]	4.28
FPGTQVGQGGKLWDPSVQSCKEGL [V1F]	1.64
KPGTQVGQGGKLWDPSVQSCKEGL [V1K]	4.36
MPGTQVGQGGKLWDPSVQSCKEGL [V1M]	4.69
APGTQVGQGGKLWDPSVQSCKEGL [V1A]	4.56
PPGTQVGQGGKLWDPSVQSCKEGL [V1P]	4.78
IPGTQVGQGGKLWDPSVQSCKEGL [V1I]	4.31

Variant	protein stability index
DPGTQVGQGGKLWDPSVQSCKEGL [V1D]	4.85
LPGTQVGQGGKLWDPSVQSCKEGL [V1L]	3.53
NPGTQVGQGGKLWDPSVQSCKEGL [V1N]	4.53
SPGTQVGQGGKLWDPSVQSCKEGL [V1S]	4.19
GPGTQVGQGGKLWDPSVQSCKEGL [V1G]	4.05
HPGTQVGQGGKLWDPSVQSCKEGL [V1H]	4.17
WPGTQVGQGGKLWDPSVQSCKEGL [V1W]	4.23
RPGTQVGQGGKLWDPSVQSCKEGL [V1R]	4.08
VPGTQVEQGGKLWDPSVQSCKEGL [G7E]	4.41
VPGTQVWQGGKLWDPSVQSCKEGL [G7W]	4.06
VPGTQVVQGGKLWDPSVQSCKEGL [G7V]	3.87
VPGTQVQQGGKLWDPSVQSCKEGL [G7Q]	3.69
VPGTQVMQGGKLWDPSVQSCKEGL [G7M]	3.91
VPGTQVKQGGKLWDPSVQSCKEGL [G7K]	3.81
VPGTQVYQGGKLWDPSVQSCKEGL [G7Y]	3.86
VPGTQVDQGGKLWDPSVQSCKEGL [G7D]	4.24
VPGTQVAQGGKLWDPSVQSCKEGL [G7A]	4.02
VPGTQVSQGGKLWDPSVQSCKEGL [G7S]	4.41
VPGTQVNQGGKLWDPSVQSCKEGL [G7N]	4.76
VPGTQVHQGGKLWDPSVQSCKEGL [G7H]	3.78
VPGTQVTQGGKLWDPSVQSCKEGL [G7T]	3.33
VPGTQVIQGGKLWDPSVQSCKEGL [G7I]	3.67
VPGTQVPQGGKLWDPSVQSCKEGL [G7P]	3.78
VPGTQVCQGGKLWDPSVQSCKEGL [G7C]	4.29

Variant	protein stability index
VPGTQVLQGGKLWDPSVQSCKEGL [G7L]	3.77
VPGTQVFQGGKLWDPSVQSCKEGL [G7F]	3.36
VPGTQVRQGGKLWDPSVQSCKEGL [G7R]	3.68
VPGDQVGQGGKLWDPSVQSCKEGL [T4D]	4.85
VPGQQVGQGGKLWDPSVQSCKEGL [T4Q]	4.23
VPGCQVGQGGKLWDPSVQSCKEGL [T4C]	4
VPGIQVGQGGKLWDPSVQSCKEGL [T4I]	3.42
VPGAQVGQGGKLWDPSVQSCKEGL [T4A]	4.55
VPGNQVGQGGKLWDPSVQSCKEGL [T4N]	4.44
VPGEQVGQGGKLWDPSVQSCKEGL [T4E]	3.4
VPGPQVGQGGKLWDPSVQSCKEGL [T4P]	4.29
VPGSQVGQGGKLWDPSVQSCKEGL [T4S]	4.08
VPGRQVGQGGKLWDPSVQSCKEGL [T4R]	3.92
VPGFQVGQGGKLWDPSVQSCKEGL [T4F]	4.15
VPGHQVGQGGKLWDPSVQSCKEGL [T4H]	4.1
VPGMQVGQGGKLWDPSVQSCKEGL [T4M]	3.92
VPGGQVGQGGKLWDPSVQSCKEGL [T4G]	4.26
VPGWQVGQGGKLWDPSVQSCKEGL [T4W]	3.55
VPGKQVGQGGKLWDPSVQSCKEGL [T4K]	3.96
VPGYQVGQGGKLWDPSVQSCKEGL [T4Y]	4.08
VPGVQVGQGGKLWDPSVQSCKEGL [T4V]	4.57
VPGLQVGQGGKLWDPSVQSCKEGL [T4L]	4.38

— the supplement of paper PMC10567573
